Target: β-amyloid peptide (1-42), P05067
Sequence (P05067 whole entry, looked up, tested part not stated): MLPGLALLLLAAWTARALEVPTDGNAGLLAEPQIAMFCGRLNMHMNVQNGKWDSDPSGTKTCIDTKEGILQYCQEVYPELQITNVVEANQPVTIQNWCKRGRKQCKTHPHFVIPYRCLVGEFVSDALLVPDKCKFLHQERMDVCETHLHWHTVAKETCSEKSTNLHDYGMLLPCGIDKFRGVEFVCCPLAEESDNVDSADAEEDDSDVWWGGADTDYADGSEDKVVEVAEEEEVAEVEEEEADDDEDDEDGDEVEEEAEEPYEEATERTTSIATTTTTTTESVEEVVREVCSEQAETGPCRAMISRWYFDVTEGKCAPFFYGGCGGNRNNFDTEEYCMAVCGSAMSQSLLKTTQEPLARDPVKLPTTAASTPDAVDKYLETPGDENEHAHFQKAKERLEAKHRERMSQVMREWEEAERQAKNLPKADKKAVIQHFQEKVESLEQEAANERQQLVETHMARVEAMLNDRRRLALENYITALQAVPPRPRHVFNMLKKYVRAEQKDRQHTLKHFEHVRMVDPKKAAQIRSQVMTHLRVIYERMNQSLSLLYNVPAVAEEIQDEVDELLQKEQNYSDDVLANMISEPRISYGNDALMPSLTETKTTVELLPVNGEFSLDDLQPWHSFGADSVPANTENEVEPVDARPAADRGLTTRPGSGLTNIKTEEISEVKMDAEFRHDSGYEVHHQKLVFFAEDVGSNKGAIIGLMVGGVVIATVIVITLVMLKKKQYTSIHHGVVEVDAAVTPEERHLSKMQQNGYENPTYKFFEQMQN

B1: Fab-neprilysin (humanized 3E10 Fab fused through a Gly-Ser linker to the human neprilysin ectodomain) (protein)
chain 1: EVQLQESGGGVVQPGGSLRLSCAASGFTFSNYGMHWIRQAPGKGLEWVSYISSGSSTIYYADSVKGRFTISRDNSKNTLYLQMNSLRSEDTAVYYCARRGLLLDYWGQGTLVTVSSASTKGPSVFPLAPSSKSTSGGTAALGCLVKDYFPEPVTVSWNSGALTSGVHTFPAVLQSSGLYSLSSVVTVPSSSLGTQTYICNVNHKPSNTKVDKKVEPKSCDKTHTGGSGGGSGGGSGGYDDGICKSSDCIKSAARLIQNMDATTEPCTDFFKYACGGWLKRNVIPETSSRYGNFDILRDELEVVLKDVLQEPKTEDIVAVQKAKALYRSCINESAIDSRGGEPLLKLLPDIYGWPVATENWEQKYGASWTAEKAIAQLNSKYGKKVLINLFVGTDDKNSVNHVIHIDQPRLGLPSRDYYECTGIYKEACTAYVDFMISVARLIRQEERLPIDENQLALEMNKVMELEKEIANATAKPEDRNDPMLLYNKMTLAQIQNNFSLEINGKPFSWLNFTNEIMSTVNISITNEEDVVVYAPEYLTKLKPILTKYSARDLQNLMSWRFIMDLVSSLSRTYKESRNAFRKALYGTTSETATWRRCANYVNGNMENAVGRLYVEAAFAGESKHVVEDLIAQIREVFIQTLDDLTWMDAETKKRAEEKALAIKERIGYPDDIVSNDNKLNNEYLELNYKEDEYFENIIQNLKFSQSKQLKKLREKVDKDEWISGAAVVNAFYSSGRNQIVFPAGILQPPFFSAQQSNSLNYGGIGMVIGHEITHGFDDNGRNFNKDGDLVDWWTQQSASNFKEQSQCMVYQYGNFSWDLAGGQHLNGINTLGENIADNGGLGQAYRAYQNYIKKNGEEKLLPGLDLNHKQLFFLNFAQVWCGTYRPEYAVNSIKTDVHSPGNFRIIGTLQNSAEFSEAFHCRKNSYMNPEKKCRVW
chain 2: DIQMTQSPSSLSASVGDRVTISCRASKSVSTSSYSYMHWYQQKPEKAPKLLIKYASYLQSGVPSRFSGSGSGTDFTLTISSLQPEDVATYYCQHSREFPWTFGAGTKLELKRTVAAPSVFIFPPSDEQLKSGTASVVCLLNNFYPREAKVQWKVDNALQSGNSQESVTEQDSKDSTYSLSSTLTLSKADYEKHKVYACEVTHQGLSSPVTKSFNRGEC
- Abeta HPLC, per hr. (sample FabNEP 2.5): 0.5 per hr.
- Abeta HPLC, per hr. (sample FabNEP 3.6, pH 3.6 elution pool): 0.61 per hr.
- Abeta HPLC, per hr. (sample FabNEP 4.0, pH 4.0 elution pool): 0.66 per hr.
- Abeta HPLC, rate (sample FabNEP 2.5) (million sq unt/min): 0.0104
- Abeta HPLC, rate (sample FabNEP 3.6, pH 3.6 elution pool) (million sq unt/min): 0.0137
- Abeta HPLC, rate (sample FabNEP 4.0, pH 4.0 elution pool) (million sq unt/min): 0.0175
- Abeta HPLC, units/µL (sample FabNEP 2.5): 0.001 units/µL
- Abeta HPLC, units/µL (sample FabNEP 3.6, pH 3.6 elution pool): 0.0547 units/µL
- Abeta HPLC, units/µL (sample FabNEP 4.0, pH 4.0 elution pool): 0.035 units/µL
- Abeta HPLC, units/µg (sample FabNEP 2.5): 0.008 units/µg
- Abeta HPLC, units/µg (sample FabNEP 3.6, pH 3.6 elution pool): 0.01 units/µg
- Abeta HPLC, units/µg (sample FabNEP 4.0, pH 4.0 elution pool): 0.011 units/µg
- degradation of β-amyloid (1-42): The Fab portion does not inhibit degradation of β-amyloid (1-42).
- degradation of β-amyloid peptide (1-42), HPLC: Fab-NEP degrades β-amyloid peptide (1-42). The Fab conjugate does not appear to inhibit neprilysin activity, as compared to yeast NEP (yNEP).
